Tests used:
RrXyl43A = biological target: T1, RrXyl43A (Rhizophlyctis rosea, UniProt A0A2U8LMQ1); assay: residual pNPX hydrolysis, absorbance […] nm; format: biochemical; details: read-out: % residual activity at 100 mM
T1 construct: full-length 325 residues, no native signal peptide; codon-optimized in pPICZalphaA with alpha-factor signal, His-tagged, Pichia pastoris KM71H; theoretical 39 kDa with tag; active as monomer; not N-glycosylated
T1 sequence (A0A2U8LMQ1 1-325): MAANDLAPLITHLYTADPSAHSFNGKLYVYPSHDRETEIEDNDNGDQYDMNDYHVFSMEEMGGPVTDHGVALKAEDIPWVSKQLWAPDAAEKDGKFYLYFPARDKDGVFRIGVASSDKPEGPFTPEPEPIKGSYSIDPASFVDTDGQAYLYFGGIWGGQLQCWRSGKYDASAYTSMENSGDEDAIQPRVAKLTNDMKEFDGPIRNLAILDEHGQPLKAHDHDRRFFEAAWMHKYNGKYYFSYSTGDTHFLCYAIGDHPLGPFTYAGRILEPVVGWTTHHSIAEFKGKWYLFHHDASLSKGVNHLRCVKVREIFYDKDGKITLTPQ

purified protein = substrate: O=[N+]([O-])c1ccc(O[C@@H]2OC[C@@H](O)[C@H](O)[C@H]2O)cc1; assay: purified protein; format: biochemical, Rhizophlyctis rosea; details: McIlvaine buffer pH 7, 25 °C, 10 min

Row | remaining activity at 100000 µM (RrXyl43A) | Molecule | Km (purified protein) | Vmax (purified protein) | kcat (purified protein)
1 | 51% | OC1OC[C@@H](O)[C@H](O)[C@H]1O (stereo partly shown) [xylose] |  |  | 
2 |  | RrXyl43A (Rhizophlyctis rosea) (protein, full-length 325 residues, no native signal peptide; codon-optimized in pPICZalphaA with alpha-factor signal, His-tagged, Pichia pastoris KM71H; theoretical 39 kDa with tag; active as monomer; not N-glycosylated) MAANDLAPLITHLYTADPSAHSFNGKLYVYPSHDRETEIEDNDNGDQYDMNDYHVFSMEEMGGPVTDHGVALKAEDIPWVSKQLWAPDAAEKDGKFYLYFPARDKDGVFRIGVASSDKPEGPFTPEPEPIKGSYSIDPASFVDTDGQAYLYFGGIWGGQLQCWRSGKYDASAYTSMENSGDEDAIQPRVAKLTNDMKEFDGPIRNLAILDEHGQPLKAHDHDRRFFEAAWMHKYNGKYYFSYSTGDTHFLCYAIGDHPLGPFTYAGRILEPVVGWTTHHSIAEFKGKWYLFHHDASLSKGVNHLRCVKVREIFYDKDGKITLTPQ | 1340 ± 170 µM | 34.6 µmol/min/mg | 21.2 ± 0.89 s⁻¹

Source: PMC6373445, “Identification and characterization of GH11 xylanase and GH43 xylosidase from the chytridiomycetous fungus, Rhizophlyctis rosea” (Applied Microbiology and Biotechnology, 2018)
